The data set deals with the molecule itself. Briefly: analytical ultracentrifugation and chemical cross-linking.

Results on one protein are retold here after patent publication US20100291137A1 (GlaxoSmithKline, published 2010).

B1: refolded NspA (recombinant mature NspA of Neisseria meningitidis strain H44/76, without the 19 amino acid signal peptide) (other)
chain: EGASGFYVQADAAHAKASSSLGSAKGFSPRISAGYRINDLRFAVDYTRYKNYKAPSTDFKLYSIGASAIYDFDTQSPVKPYLGARLSLNRASVDLGGSDSFSQTSIGLGVLTGVSYAVTPNVDLDAGYRYNYIGKVNTVKNVRSGELSAGVRVKF
Turning to B1, the binding result was “no binding”.
